The text below walks through data of publication PMC12714700.

A word on the stoichiometry N: it is a count of units in the complex or per binding partner.

The target of the experiment is SARS-CoV-2 Delta spike-ferritin fusion protein (Delta spike-ferritin VLP antigen) (SARS-CoV-2 (Delta variant) | Helicobacter pylori) (UniProt P0DTC2). In words: cryo-EM structure.

Turning to “SARS-CoV-2 Delta spike-ferritin fusion protein (Delta spike-ferritin VLP antigen) (from UniProt P0DTC2 14-1163)”, the stoichiometry N came out at 24.
